From paper PMC9482650, “Quantitative fragmentomics allow affinity mapping of interactomes” (Nature Communications, 2022)

T1: RHPN1, Q8TCX5
T1 sequence (Q8TCX5 508-602, limits assumed, looked up): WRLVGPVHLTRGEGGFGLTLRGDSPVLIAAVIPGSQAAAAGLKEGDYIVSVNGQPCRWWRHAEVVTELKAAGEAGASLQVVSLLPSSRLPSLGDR

T2: CARD11, Q9BXL7
T2 sequence (Q9BXL7 662-765, limits assumed, looked up): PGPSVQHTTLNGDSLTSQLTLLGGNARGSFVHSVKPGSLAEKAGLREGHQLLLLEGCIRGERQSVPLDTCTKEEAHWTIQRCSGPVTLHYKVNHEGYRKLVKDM

T3: MPP2, Q14168
T3 sequence (Q14168 180-250, limits assumed, looked up): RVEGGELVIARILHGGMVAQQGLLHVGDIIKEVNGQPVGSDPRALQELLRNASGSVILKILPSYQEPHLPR

T4: SIPA1L2, Q9P2F8
T4 sequence (Q9P2F8 945-1036, limits assumed, looked up): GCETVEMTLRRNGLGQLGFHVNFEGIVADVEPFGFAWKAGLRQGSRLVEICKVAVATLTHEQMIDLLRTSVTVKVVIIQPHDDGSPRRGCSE

T5: LNX2_3, Q8N448
T5 sequence (Q8N448 463-564, limits assumed, looked up): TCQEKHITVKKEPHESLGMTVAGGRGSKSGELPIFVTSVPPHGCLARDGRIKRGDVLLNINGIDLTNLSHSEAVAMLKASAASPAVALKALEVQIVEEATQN

T6: MPP6, Q9NZW5
T6 sequence (Q9NZW5 125-219, limits assumed, looked up): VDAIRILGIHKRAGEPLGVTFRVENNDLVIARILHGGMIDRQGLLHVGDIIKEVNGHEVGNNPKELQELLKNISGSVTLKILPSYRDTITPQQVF

T7: DLG3_3, Q92796
T7 sequence (Q92796 374-475, limits assumed, looked up): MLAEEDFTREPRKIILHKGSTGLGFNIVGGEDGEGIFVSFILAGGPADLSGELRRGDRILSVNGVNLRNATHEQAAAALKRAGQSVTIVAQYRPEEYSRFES

T8: GRIP1_2, Q9Y3R0
T8 sequence (Q9Y3R0 145-248, limits assumed, looked up): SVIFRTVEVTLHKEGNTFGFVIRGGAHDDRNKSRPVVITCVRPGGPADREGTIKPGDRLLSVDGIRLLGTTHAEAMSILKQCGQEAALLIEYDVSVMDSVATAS

T9: DLG3_2, Q92796
T9 sequence (Q92796 221-321, limits assumed, looked up): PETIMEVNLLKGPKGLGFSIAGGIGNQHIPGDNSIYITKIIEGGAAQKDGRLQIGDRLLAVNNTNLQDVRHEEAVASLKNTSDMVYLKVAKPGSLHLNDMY

T10: SNTG2, Q9NY99
T10 sequence (Q9NY99 68-166, limits assumed, looked up): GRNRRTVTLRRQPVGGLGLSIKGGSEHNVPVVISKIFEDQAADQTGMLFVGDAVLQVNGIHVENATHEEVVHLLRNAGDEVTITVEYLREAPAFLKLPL

T11: MPP7, Q5T2T1
T11 sequence (Q5T2T1 134-230, limits assumed, looked up): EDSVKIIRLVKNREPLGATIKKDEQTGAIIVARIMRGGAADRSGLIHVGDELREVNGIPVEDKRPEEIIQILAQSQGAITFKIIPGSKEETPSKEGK


Legend:
Assay in all cases: holdup assay
Design in all cases: key: below the threshold = too weak to quantify, mostly under pKd 3.1 to 4
Settings in all cases: plain residues with an end cap or a label only (N-terminal biotin on a linker: ado-ado)
Inadl_4, Q8NI35 = molecular target: Inadl_4, Q8NI35
RHPN1, Q8TCX5 = molecular target: T1, RHPN1, Q8TCX5
GRIP2_4, Q9C0E4 = molecular target: GRIP2_4, Q9C0E4
IL16_4, Q14005 = molecular target: IL16_4, Q14005
PTPN3, P26045 = molecular target: PTPN3, P26045
CARD11, Q9BXL7 = molecular target: T2, CARD11, Q9BXL7
ARHGEF12, Q9NZN5-2 = molecular target: ARHGEF12, Q9NZN5-2
MPP2, Q14168 = molecular target: T3, MPP2, Q14168
GRIP2_5, Q9C0E4 = molecular target: GRIP2_5, Q9C0E4
FRMPD2_2, Q68DX3 = molecular target: FRMPD2_2, Q68DX3
PDLIM1, O00151 = molecular target: PDLIM1, O00151
SCRIB_3, Q14160 = molecular target: SCRIB_3, Q14160
SIPA1L2, Q9P2F8 = molecular target: T4, SIPA1L2, Q9P2F8
NHERF4_1, Q86UT5-2 = molecular target: NHERF4_1, Q86UT5-2
LNX2_3, Q8N448 = molecular target: T5, LNX2_3, Q8N448
GRIP2_7, Q9C0E4 = molecular target: GRIP2_7, Q9C0E4
MPP6, Q9NZW5 = molecular target: T6, MPP6, Q9NZW5
DLG3_3, Q92796 = molecular target: T7, DLG3_3, Q92796
NOS1, P29475 = molecular target: NOS1, P29475
GIPC2, Q8TF65 = molecular target: GIPC2, Q8TF65
GRIP1_2, Q9Y3R0 = molecular target: T8, GRIP1_2, Q9Y3R0
DLG3_2, Q92796 = molecular target: T9, DLG3_2, Q92796
SCRIB_1, Q14160 = molecular target: SCRIB_1, Q14160
SNTG2, Q9NY99 = molecular target: T10, SNTG2, Q9NY99
TJP2_1, Q9UDY2 = molecular target: TJP2_1, Q9UDY2
MPP7, Q5T2T1 = molecular target: T11, MPP7, Q5T2T1

Sequence of NHERF4_1, Q86UT5-2 (Q86UT5 other isoform, or with tags, fused parts or gaps): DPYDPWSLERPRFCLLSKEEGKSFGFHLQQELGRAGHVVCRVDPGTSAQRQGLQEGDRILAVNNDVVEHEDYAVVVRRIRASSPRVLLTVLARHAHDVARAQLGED
Sequence of GIPC2, Q8TF65 (Q8TF65 112-203): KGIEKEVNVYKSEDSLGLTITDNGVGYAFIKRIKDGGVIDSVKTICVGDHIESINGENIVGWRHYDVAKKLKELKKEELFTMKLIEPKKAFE
Sequence of FRMPD2_2, Q68DX3 (Q68DX3 944-1038): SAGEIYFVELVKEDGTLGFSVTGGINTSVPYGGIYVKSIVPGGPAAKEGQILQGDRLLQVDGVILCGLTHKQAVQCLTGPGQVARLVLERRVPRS
Sequence of NOS1, P29475 (P29475 9-101): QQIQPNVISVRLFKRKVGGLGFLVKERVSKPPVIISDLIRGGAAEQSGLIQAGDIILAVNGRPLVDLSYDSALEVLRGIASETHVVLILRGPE
Sequence of GRIP2_5, Q9C0E4 (Q9C0E4 544-642): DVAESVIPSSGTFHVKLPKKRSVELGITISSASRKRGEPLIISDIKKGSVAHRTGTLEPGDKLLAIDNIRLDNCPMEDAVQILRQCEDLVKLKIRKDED
Sequence of PTPN3, P26045 (P26045 505-587): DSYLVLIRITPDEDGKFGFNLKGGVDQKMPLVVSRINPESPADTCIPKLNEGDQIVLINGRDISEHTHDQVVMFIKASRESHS
Sequence of IL16_4, Q14005 (Q14005 1229-1329): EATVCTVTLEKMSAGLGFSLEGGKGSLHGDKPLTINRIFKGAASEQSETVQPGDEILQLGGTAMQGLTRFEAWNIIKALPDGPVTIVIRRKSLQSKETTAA
Sequence of GRIP2_7, Q9C0E4 (Q9C0E4 934-1023): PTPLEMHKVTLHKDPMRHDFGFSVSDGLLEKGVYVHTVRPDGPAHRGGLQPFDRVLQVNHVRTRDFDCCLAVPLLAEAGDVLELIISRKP
Sequence of SCRIB_3, Q14160 (Q14160 999-1103): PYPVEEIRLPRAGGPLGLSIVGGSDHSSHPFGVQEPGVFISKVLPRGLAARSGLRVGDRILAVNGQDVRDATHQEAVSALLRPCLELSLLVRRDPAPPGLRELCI
Sequence of Inadl_4, Q8NI35 (Q8NI35 547-651): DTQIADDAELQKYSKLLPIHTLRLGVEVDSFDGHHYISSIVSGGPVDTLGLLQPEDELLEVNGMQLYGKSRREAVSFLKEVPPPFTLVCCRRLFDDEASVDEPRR
Sequence of SCRIB_1, Q14160 (Q14160 718-814): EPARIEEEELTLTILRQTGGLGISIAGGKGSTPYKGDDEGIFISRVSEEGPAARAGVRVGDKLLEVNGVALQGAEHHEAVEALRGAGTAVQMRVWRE
Sequence of ARHGEF12, Q9NZN5-2 (Q9NZN5 other isoform, or with tags, fused parts or gaps): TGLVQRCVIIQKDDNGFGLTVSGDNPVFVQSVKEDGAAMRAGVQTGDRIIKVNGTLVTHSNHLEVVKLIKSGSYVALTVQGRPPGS
Sequence of GRIP2_4, Q9C0E4 (Q9C0E4 446-548): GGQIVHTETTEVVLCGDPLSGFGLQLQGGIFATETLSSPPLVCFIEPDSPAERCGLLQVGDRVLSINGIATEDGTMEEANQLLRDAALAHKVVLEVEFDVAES
Sequence of TJP2_1, Q9UDY2 (Q9UDY2 24-128): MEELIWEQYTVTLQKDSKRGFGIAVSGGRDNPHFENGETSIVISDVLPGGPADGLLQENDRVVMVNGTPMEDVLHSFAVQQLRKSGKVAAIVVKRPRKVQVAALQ
Sequence of PDLIM1, O00151 (O00151 1-87): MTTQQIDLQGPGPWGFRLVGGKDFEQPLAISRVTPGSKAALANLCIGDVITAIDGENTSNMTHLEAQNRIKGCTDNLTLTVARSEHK

| pKd (Inadl_4, Q8NI35) | pKd (RHPN1, Q8TCX5) | pKd (GRIP2_4, Q9C0E4) | pKd (IL16_4, Q14005) | pKd (PTPN3, P26045) | pKd (CARD11, Q9BXL7) | pKd (ARHGEF12, Q9NZN5-2) | pKd (MPP2, Q14168) | pKd (GRIP2_5, Q9C0E4) | pKd (FRMPD2_2, Q68DX3) | pKd (PDLIM1, O00151) | pKd (SCRIB_3, Q14160) | pKd (SIPA1L2, Q9P2F8) | pKd (NHERF4_1, Q86UT5-2) | pKd (LNX2_3, Q8N448) | pKd (GRIP2_7, Q9C0E4) | pKd (MPP6, Q9NZW5) | pKd (DLG3_3, Q92796) | pKd (NOS1, P29475) | pKd (GIPC2, Q8TF65) | Binder | other results |
| --- | --- | --- | --- | --- | --- | --- | --- | --- | --- | --- | --- | --- | --- | --- | --- | --- | --- | --- | --- | --- | --- |
| below the threshold | 4.49 | below the threshold | below the threshold | 5.05 | below the threshold | 4.53 | below the threshold | below the threshold | below the threshold | 3.59 | 4.7 | below the threshold | 3.9 | below the threshold | below the threshold | below the threshold | below the threshold | 3.65 | below the threshold | PELESKESVL [SLC1A4, P43007] | pKd (GRIP1_2, Q9Y3R0): below the threshold; pKd (DLG3_2, Q92796): 3.79; pKd (SCRIB_1, Q14160): 4.18; pKd (SNTG2, Q9NY99): 4.09; pKd (TJP2_1, Q9UDY2): below the threshold; pKd (MPP7, Q5T2T1): below the threshold |
| below the threshold | below the threshold | below the threshold | 3.57 | 3.61 | below the threshold | below the threshold | below the threshold | below the threshold | below the threshold | below the threshold | below the threshold | below the threshold | below the threshold | below the threshold | 3.78 | below the threshold | below the threshold | 4.07 | below the threshold | LTAQEQPVYI [APBA1, Q02410] | pKd (GRIP1_2, Q9Y3R0): below the threshold; pKd (DLG3_2, Q92796): 4.06; pKd (SCRIB_1, Q14160): below the threshold; pKd (SNTG2, Q9NY99): below the threshold; pKd (TJP2_1, Q9UDY2): below the threshold; pKd (MPP7, Q5T2T1): below the threshold |
| below the threshold | below the threshold | below the threshold | below the threshold | 4.02 | below the threshold | 4.9 | below the threshold | below the threshold | below the threshold | below the threshold | 4.41 | below the threshold | 4.41 | below the threshold | below the threshold | below the threshold | below the threshold | 4.35 | below the threshold | SRPTKGPTLL [PLEKHH2, Q8IVE3] | pKd (GRIP1_2, Q9Y3R0): below the threshold; pKd (DLG3_2, Q92796): below the threshold; pKd (SCRIB_1, Q14160): 3.86; pKd (SNTG2, Q9NY99): below the threshold; pKd (TJP2_1, Q9UDY2): 3.57; pKd (MPP7, Q5T2T1): below the threshold |
| below the threshold | 3.94 | below the threshold | 3.54 | 4.59 | below the threshold | 5.09 | below the threshold | below the threshold | 4.12 | below the threshold | 4.58 | below the threshold | 3.68 | below the threshold | 3.66 | below the threshold | 3.86 | below the threshold | 3.56 | RQSILFSTEV [BCR, P11274] | pKd (GRIP1_2, Q9Y3R0): below the threshold; pKd (DLG3_2, Q92796): 4.79; pKd (SCRIB_1, Q14160): 4.69; pKd (SNTG2, Q9NY99): 4.1; pKd (TJP2_1, Q9UDY2): 3.69; pKd (MPP7, Q5T2T1): below the threshold |
| below the threshold | below the threshold | below the threshold | 3.51 | below the threshold | below the threshold | below the threshold | below the threshold | below the threshold | below the threshold | below the threshold | below the threshold | below the threshold | 3.8 | 3.53 | below the threshold | below the threshold | below the threshold | below the threshold | 3.55 | EEDTAEKDEL [HSPA5, P11021] | pKd (GRIP1_2, Q9Y3R0): below the threshold; pKd (DLG3_2, Q92796): below the threshold; pKd (SCRIB_1, Q14160): below the threshold; pKd (SNTG2, Q9NY99): below the threshold; pKd (TJP2_1, Q9UDY2): below the threshold; pKd (MPP7, Q5T2T1): below the threshold |
| below the threshold | 4.07 | below the threshold | below the threshold | 4.5 | below the threshold | 4.42 | below the threshold | below the threshold | 3.73 | below the threshold | 4.2 | below the threshold | below the threshold | below the threshold | below the threshold | below the threshold | below the threshold | below the threshold | 3.89 | PLDSQQHTEV [FAT1, Q14517] | pKd (GRIP1_2, Q9Y3R0): below the threshold; pKd (DLG3_2, Q92796): 4.77; pKd (SCRIB_1, Q14160): 4.12; pKd (SNTG2, Q9NY99): 3.67; pKd (TJP2_1, Q9UDY2): below the threshold; pKd (MPP7, Q5T2T1): below the threshold |
